Measurements as given in publication PMC10990141.

Target: F-actin from rabbit skeletal muscle G-actin (rabbit) (UniProt P68135)
Test: cryoEM images and 2D image averages; 0.83 uM full-length myosin-5a, 3.6 uM calmodulin, 2.1 uM F-actin, 0.20 mM ATP, 95 mM KCl, 48 uM MgCl2, 0.12 mM EGTA, 10 mM MOPS pH 7.0, 22 °C; applied within 10 s to a lacey carbon grid and flash frozen

“full-length mouse myosin-5a, melanocyte-specific isoform, with calmodulin (from UniProt P0DP23 1-149) (complex)” showed a percent of the added myosin attached to actin of less than 10%.
